Test results from US20240254232A1 (SUNSHINE GUOJIAN PHARMACEUTICAL SHANGHAI, published 2024).

What was measured:
[1] = target: T1, LAG-3 extracellular segment recombinant protein with polyhistidine tag (LAG3-His) (UniProt P18627 23-450, limits assumed); assay: ELISA, LAG3-His coated at 10 ng/well, HRP anti-human Fc detection
T1 construct: extracellular domain
T1 sequence (looked up): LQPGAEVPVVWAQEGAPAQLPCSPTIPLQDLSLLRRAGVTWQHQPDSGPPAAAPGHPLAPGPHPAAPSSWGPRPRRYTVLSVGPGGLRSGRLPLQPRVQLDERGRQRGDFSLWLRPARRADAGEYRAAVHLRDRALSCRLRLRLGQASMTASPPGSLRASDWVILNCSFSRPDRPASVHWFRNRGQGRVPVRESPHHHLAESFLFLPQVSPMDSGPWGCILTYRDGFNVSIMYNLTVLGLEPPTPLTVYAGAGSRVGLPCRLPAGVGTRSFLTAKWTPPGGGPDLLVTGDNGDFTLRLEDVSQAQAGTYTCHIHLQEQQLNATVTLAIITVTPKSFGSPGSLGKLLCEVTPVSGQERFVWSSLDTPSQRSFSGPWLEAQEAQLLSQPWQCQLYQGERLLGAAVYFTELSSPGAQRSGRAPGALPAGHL
Experimental: (§1) The ELISA detection method used in the following embodiments is described as follows: the corresponding recombinant protein is coated on the microplate, and the microplate is closed with PBST containing 1% bovine serum albumin (PBST is a phosphate buffer containing 0.05% Tween-20). The antibody to be tested was sequentially diluted and then transferred to the above recombinant protein-coated microplates, incubated at room temperature for half an hour and then washed, appropriately diluted HRP (Horseradish Peroxidase)-labeled goat anti-human antibody (Fc specific, purchased from Sigma) was incubated at room temperature for half an hour and then washed, and 100 μl of TMB (3,3′,5,5′-Tetramethylbenzidine) was added to each well.
(§2) Hereby, HER2 extracellular segment recombinant protein (referred to as HER2-His, purchased from Sino Biological Inc.), PD-1 extracellular segment recombinant protein (referred to as PD1-His, purchased from Sino Biological Inc.), and LAG-3 extracellular segment recombinant protein (referred to as LAG3-His, purchased from ACROBiosystems) with polyhistidine tags were coated on microplates at concentrations of 20 ng/well, 20 ng/well, and 10 ng/well, respectively.

[2] = target: T2, PD-1 extracellular segment recombinant protein with polyhistidine tag (PD1-His) (UniProt Q15116 25-170, limits assumed); assay: ELISA, PD1-His coated at 20 ng/well, HRP anti-human Fc detection
T2 construct: extracellular domain
Experimental: as §1, §2

[3] = target: T3, HER2 extracellular segment recombinant protein with polyhistidine tag (HER2-His) (UniProt P04626 23-652, limits assumed); assay: ELISA, HER2-His coated at 20 ng/well, HRP anti-human Fc detection
T3 construct: extracellular domain
Experimental: as §1, §2

T2 sequence (Q15116 25-170 limits assumed): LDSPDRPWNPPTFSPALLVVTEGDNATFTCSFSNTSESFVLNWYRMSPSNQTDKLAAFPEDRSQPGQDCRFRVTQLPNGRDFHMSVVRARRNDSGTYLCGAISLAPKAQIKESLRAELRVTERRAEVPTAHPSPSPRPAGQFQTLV

B1: 134-IgG4 (134 Hu IgG4-C91S), humanized monoclonal antibody against human LAG-3 (antibody, V domains shown)
VH: QVQLVQSGAEVKKPGASVKVSCKASGYTLTAYYMNWVRQAPGQSLEWIGVINPYNGDSSYNQKFKGRATLTVDKSTSTAYMELSSLRSEDTAVYYCARDDGYYRWYFDVWGQGTLVTVSS
VL: DIQMTQSPSSLSASVGDRVTITCRASQDIGSRLNWLQQKPGKSIKRLIYATSSLESGVPSRFSGSRSGSDYTLTISSLQPEDFATYYCLQSGSSPPTFGQGTKVEIKR
notes: also called Anti-LAG-3 antibody
Q: B1 was tested. Which EC50 [1] did it give?
A: 122 pM

B2: 609-302-134-IgG4, hexavalent trispecific antibody against PD-1, HER-2 and LAG-3 (antibody)
heavy: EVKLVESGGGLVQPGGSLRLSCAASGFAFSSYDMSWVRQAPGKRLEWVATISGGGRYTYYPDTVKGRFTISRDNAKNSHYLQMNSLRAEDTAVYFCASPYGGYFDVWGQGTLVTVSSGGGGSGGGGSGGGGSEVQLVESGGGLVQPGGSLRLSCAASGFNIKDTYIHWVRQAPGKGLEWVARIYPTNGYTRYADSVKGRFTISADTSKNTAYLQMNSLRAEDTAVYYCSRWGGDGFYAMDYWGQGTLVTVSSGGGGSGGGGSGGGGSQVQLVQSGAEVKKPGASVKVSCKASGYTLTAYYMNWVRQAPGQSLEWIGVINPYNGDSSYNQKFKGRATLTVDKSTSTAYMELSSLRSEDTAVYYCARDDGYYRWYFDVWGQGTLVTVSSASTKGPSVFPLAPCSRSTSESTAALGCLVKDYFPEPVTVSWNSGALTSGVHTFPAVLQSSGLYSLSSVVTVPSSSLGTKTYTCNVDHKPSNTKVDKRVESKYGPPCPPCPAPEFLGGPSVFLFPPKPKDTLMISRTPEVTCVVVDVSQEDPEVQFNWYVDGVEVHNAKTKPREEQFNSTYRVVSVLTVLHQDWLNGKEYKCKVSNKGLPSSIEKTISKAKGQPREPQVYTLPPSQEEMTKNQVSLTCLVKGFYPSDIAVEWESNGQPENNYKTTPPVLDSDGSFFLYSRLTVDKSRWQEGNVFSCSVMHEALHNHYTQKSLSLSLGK
light 1: not shown
light 2: DIQMTQSPSSLSASVGDRVTITCRASQDIGSRLNWLQQKPGKSIKRLIYATSSLESGVPSRFSGSRSGSDYTLTISSLQPEDFATYYCLQSGSSPPTFGQGTKVEIKRTVAAPSVFIFPPSDEQLKSGTASVVCLLNNFYPREAKVQWKVDNALQSGNSQESVTEQDSKDSTYSLSSTLTLSKADYEKHKVYACEVTHQGLSSPVTKSFNRGEC
Q: B2 was tested. Which EC50 [2] did it give?
A: 125 pM

Q: What about the EC50 [1] of the same binder?
A: 260 pM

B3: 609-302-(44CC)-134-IgG4, hexavalent trispecific antibody against PD-1, HER-2 and LAG-3 (antibody)
heavy: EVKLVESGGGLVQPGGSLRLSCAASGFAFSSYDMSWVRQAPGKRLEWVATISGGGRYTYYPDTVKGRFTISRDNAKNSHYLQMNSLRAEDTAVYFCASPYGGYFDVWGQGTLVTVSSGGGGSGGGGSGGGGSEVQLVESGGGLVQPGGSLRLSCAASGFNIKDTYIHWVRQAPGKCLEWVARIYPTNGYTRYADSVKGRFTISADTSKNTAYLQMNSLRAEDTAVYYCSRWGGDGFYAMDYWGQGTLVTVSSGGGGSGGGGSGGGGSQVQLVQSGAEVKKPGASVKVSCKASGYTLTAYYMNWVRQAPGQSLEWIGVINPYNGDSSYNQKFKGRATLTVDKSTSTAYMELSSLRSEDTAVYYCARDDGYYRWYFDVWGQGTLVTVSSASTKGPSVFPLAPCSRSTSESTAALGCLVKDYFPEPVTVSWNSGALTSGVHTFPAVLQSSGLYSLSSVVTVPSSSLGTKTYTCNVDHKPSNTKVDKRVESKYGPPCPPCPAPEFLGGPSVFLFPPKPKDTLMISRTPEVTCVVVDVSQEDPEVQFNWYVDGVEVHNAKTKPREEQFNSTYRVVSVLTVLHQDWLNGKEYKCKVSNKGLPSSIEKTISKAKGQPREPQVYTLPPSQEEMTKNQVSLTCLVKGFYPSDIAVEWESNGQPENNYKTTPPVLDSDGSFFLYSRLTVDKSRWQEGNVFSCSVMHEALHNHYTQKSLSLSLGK
light 1: not shown
light 2: DIQMTQSPSSLSASVGDRVTITCRASQDIGSRLNWLQQKPGKSIKRLIYATSSLESGVPSRFSGSRSGSDYTLTISSLQPEDFATYYCLQSGSSPPTFGQGTKVEIKRTVAAPSVFIFPPSDEQLKSGTASVVCLLNNFYPREAKVQWKVDNALQSGNSQESVTEQDSKDSTYSLSSTLTLSKADYEKHKVYACEVTHQGLSSPVTKSFNRGEC
Q: Which results are given for B3?
A: EC50 [2]: 91.1 pM; EC50 [1]: 226 pM; EC50 [3]: 355 pM

B4: 609-302-(105CC)-134-IgG4, hexavalent trispecific antibody against PD-1, HER-2 and LAG-3 (antibody)
heavy: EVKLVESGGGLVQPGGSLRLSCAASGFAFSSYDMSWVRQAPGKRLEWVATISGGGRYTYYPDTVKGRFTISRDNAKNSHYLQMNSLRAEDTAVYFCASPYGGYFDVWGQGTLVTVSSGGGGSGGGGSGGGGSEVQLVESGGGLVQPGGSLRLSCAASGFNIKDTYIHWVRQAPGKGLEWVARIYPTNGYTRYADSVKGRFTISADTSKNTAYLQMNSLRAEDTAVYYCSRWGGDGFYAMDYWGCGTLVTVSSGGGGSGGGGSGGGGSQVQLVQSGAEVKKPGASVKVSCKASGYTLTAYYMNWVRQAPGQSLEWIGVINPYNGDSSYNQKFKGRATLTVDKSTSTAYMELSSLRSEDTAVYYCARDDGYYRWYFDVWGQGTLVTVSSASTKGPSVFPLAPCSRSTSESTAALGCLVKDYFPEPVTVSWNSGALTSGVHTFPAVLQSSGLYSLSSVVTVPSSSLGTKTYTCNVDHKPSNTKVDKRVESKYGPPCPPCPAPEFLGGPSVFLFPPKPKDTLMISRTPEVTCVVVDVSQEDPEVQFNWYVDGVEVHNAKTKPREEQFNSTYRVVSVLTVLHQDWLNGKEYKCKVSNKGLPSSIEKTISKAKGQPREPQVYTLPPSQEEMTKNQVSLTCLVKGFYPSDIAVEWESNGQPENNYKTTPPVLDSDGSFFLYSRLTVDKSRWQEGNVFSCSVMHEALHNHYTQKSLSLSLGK
light 1: not shown
light 2: DIQMTQSPSSLSASVGDRVTITCRASQDIGSRLNWLQQKPGKSIKRLIYATSSLESGVPSRFSGSRSGSDYTLTISSLQPEDFATYYCLQSGSSPPTFGQGTKVEIKRTVAAPSVFIFPPSDEQLKSGTASVVCLLNNFYPREAKVQWKVDNALQSGNSQESVTEQDSKDSTYSLSSTLTLSKADYEKHKVYACEVTHQGLSSPVTKSFNRGEC
Q: B4 was tested. Which EC50 [2] did it give?
A: 104 pM

Q: And the EC50 [1]?
A: 286 pM

Q: What about the EC50 [3] of the same binder?
A: 420 pM
